According to PMC4479986, “An Alternative Phosphorylation Switch in Integrin β2 (CD18) Tail for Dok1 Binding” (Scientific Reports, 2015):
One block for each molecule: values may come before it. Square brackets hold non-standard residues; d marks the D form. Ends that are not written are not given here. Peptide text beside a SMILES is read from it. pS = N[C@@H](COP(=O)(O)O)C(=O)O

Columns and labels:
Dok1 PTB domain = target: T1, Dok1 PTB domain (Homo sapiens, UniProt Q99704); test: 15N-1H HSQC NMR chemical shift titration of Dok1 PTB domain with integrin β2 tail peptides; type: binding; details: Table 2; 15N-1H HSQC combined chemical shift perturbation, 0.7 mM 15N-Dok1 PTB domain, 50 mM sodium phosphate pH 6.0, 100 mM NaCl, 2 mM DTT, 20 min equilibration; depletion model fit; Kd ± S.E.; read-out: Dissociation constant Kd
T1 construct: Human Dok1 PTB domain (Q154 – G256; Swiss-Prot Q99704, number as Q1-G103); six His-tag (N); made in house; host or cells: Escherichia coli Rosetta
T1 sequence (Q99704 154-256): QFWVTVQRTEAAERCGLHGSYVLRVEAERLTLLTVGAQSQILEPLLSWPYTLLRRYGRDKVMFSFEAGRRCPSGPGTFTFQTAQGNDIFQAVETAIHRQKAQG
Description: Human Dok1 PTB domain (Q154 – G256; Swiss-Prot Q99704, number as Q1-G103) was sub-cloned into the pET14b vector with an N-terminal six His-tag. Escherichia coli Rosetta cells were transformed with the expression plasmid and grown at 37 °C either in LB or M9 medium containing [^15N] ammonium chloride (Cambridge Isotope Laboratories). Expression of recombinant protein was induced by adding 1 mM IPTG to cells (OD600 0.6–0.7) followed by incubation for 6–12 h at 16 °C. Cells were centrifuged and re-suspended in Buffer A (20 mM Tris-HCl buffer, pH 8.0) followed by affinity purification on a Nickel-NTA column (Qiagen). […] Proteins were eluted at a flow rate of 0.5 ml/min and monitored by absorbance at λ = 276 nm.
All NMR experiments were performed on a Bruker DRX 600 MHz spectrometer equipped with an actively shielded cryoprobe. NMR data were processed using the NMRPipe and NMRDraw suite and analysed by Sparky (T.D. Goddard and D.G. Kneller, University of California, San Francisco). […] The stock solutions of the above mentioned peptides were prepared in the same buffer (100 mM NaCl, 2 mM DTT, 50 mM sodium phosphate, pH 6.0) used for the Dok1 PTB domain NMR experiments, ^15N-^1H HSQC spectra were recorded at different protein:peptide molar ratios (1:0.1, 1:0.2, 1:0.3, 1:0.5, 1:1, 1:1.5, 1:2, 1:2.5 and 1:3) for all of the above mentioned peptides except for the unphosphorylated KT15. […]

[1] = Solubility of β2 tail peptide as observed in NMR sample preparation; type: physicochemical; details: at high concentrations, NMR buffer
[2] = system: Dok1-CFP / integrin β2-YFP association in K562 cells; test: YFP-photobleach FRET between Dok1-CFP and integrin β2-YFP in K562 cells; type: cell-based, human; details: K562 stably expressing Dok1-CFP, transfected with integrin αL, β2-YFP and CCR5; RANTES 50 ng/ml, 10 min, 37 °C; 39 cells with, 60 without; p < 0.05
Description: K562 cells (ATCC, Manassas, VA) were cultured in RPMI1640 full-medium containing 10% (v/v) FBS and antibiotics. Cells (2 × 10^6) were transfected with integrin αL plasmid (9 μg), integrin β2-YFP plasmid (WT or mutant) (9 μg) and Dok1-CFP or CFP plasmid (12 μg) by electroporation using the Neon electroporation kit (Invitrogen) on a MP-100 pipette-type microporator (Invitrogen). YFP-photobleach FRET assay was performed essentially as described. Immunoblottings of transfected K562 lysates were performed using rabbit anti-GFP antibody (Life Technologies, Grand Island, NY), rabbit anti-Dok1 antibody (Abcam, Cambridge, MA) and HRP-conjugated goat anti-rabbit (Avansta, Menlo Park, CA) followed by ECL detection. To generate K562 cells stably expressing Dok1-CFP, cells were transfected with Dok1-CFP plasmid by electroporation followed by serial dilutions into 96-well cell culture microtitre plates to select for stable clones in the presence of antibiotic G418 (0.6 mg/ml). Clones expressing Dok1-CFP were screened by flow cytometry analyses and verified by immunoblotting with anti-GFP antibody (Life Technologies, Grand Island, NY). […] Samples were acquired and examined on a FACSCalibur flow cytometer and data analyzed using the Flowjo software (Tree Star Inc. Ashland, OR). […]

[3] = target: T2, Human Dok1 PTB domain (Q154-G256) (human, UniProt Q99704 154-256); test: NMR titration; 15N-1H HSQC of 15N-labelled Dok1 PTB domain at 0.7 mM, unlabelled peptide added (protein:peptide 1:0.1 to 1:3; KT15 1:0.5 to 1:6); 100 mM NaCl, 2 mM DTT, 50 mM sodium phosphate, pH 6.0; Kd from combined chemical shift changes, depletion model; apparent for KT15; details: both partners purified
T2 construct: Docking protein 1 (Dok1; p62Dok), human, PTB domain Q154-G256 of Swiss-Prot Q99704. numbers count on: the construct, renumbered Q1-G103 (Q154 = Q1); pET14b vector; no removal of the His tag is described; Residue numbers of the PTB domain in the results (Arg54, Arg69 ...) count on Q1-G103; also called PTB domain of Dok1; source: E. coli Rosetta, purified (Nickel-NTA, gel filtration on Superdex …)
T2 sequence (looked up): T1 sequence (Q99704 154-256)

Kd (Dok1 PTB domain): 16000 ± 300 µM
Molecule: CC(C)C[C@H](NC(=O)[C@@H]1CCCN1C(=O)[C@H](CC(N)=O)NC(=O)[C@H](CC(=O)O)NC(=O)[C@H](CC(N)=O)NC(=O)[C@H](CC(N)=O)NC(=O)[C@H](Cc1c[nH]c2ccccc12)NC(=O)[C@H](CCC(N)=O)NC(=O)[C@H](CO)NC(=O)[C@@H](N)CCCCN)C(=O)N[C@@H](Cc1ccccc1)C(=O)N[C@@H](CCCCN)C(=O)N[C@@H](CO)C(=O)N[C@@H](C)C(=O)N[C@H](C(=O)O)[C@@H](C)O [KT15] (H-KSQWNNDNPLFKSAT-OH)

Kd (Dok1 PTB domain): 189 ± 30 µM
Molecule: CC(C)C[C@H](NC(=O)[C@@H]1CCCN1C(=O)[C@H](CC(N)=O)NC(=O)[C@H](CC(=O)O)NC(=O)[C@H](CC(N)=O)NC(=O)[C@H](CC(N)=O)NC(=O)[C@H](Cc1c[nH]c2ccccc12)NC(=O)[C@H](CCC(N)=O)NC(=O)[C@H](CO)NC(=O)[C@@H](N)CCCCN)C(=O)N[C@@H](Cc1ccccc1)C(=O)N[C@@H](CCCCN)C(=O)N[C@@H](COP(=O)(O)O)C(=O)N[C@@H](C)C(=O)N[C@H](C(=O)O)[C@@H](C)O [pSer756-KT15] (H-KSQWNNDNPLFK[pS]AT-OH)

Solubility in words [1]: limited solubility
Molecule: KALIHLSDLREYRRFEKEKLKSQWNNDNPLFKSATTTVMNPKFAES [full-length unphosphorylated β2 tail, Synthetic full-length integrin β2 (CD18) cytoplasmic tail, residues 724-769]

B1: RANTES: Chemokine, ligand of CCR5, used to activate cells (Calbiochem) (protein, UniProt P13501 24-91, looked up)
C-C motif chemokine 5: SPYSSDTTPCCFAYIARPLPRAHIKEYFYTSGKCSNPAVVFVTRKNRQVCANPEKKWVREYINSLEMS
FRET signal Dok1-CFP / integrin β2-YFP compared with untreated cells [2]: significantly lower

Kd [3]: 8490 µM
B2: KT18EE, integrin β2 tail fragment (K742-T759) with Ser745 and Ser756 substituted by Glu (peptide)
peptide: KLKEQWNNDNPLFKEATT
notes: also called Ser to Glu substituted KT18 peptide; Ser to Glu substituted β2 tail peptide; source: synthetic peptide, bought: GLBioChem, Shanghai (purity >95%)

Kd [3]: 215 µM
B3: Full-length integrin β2 tail peptide phosphorylated at Ser745 (peptide)
chain: KALIHLSDLREYRRFEKEKLK[pS]QWNNDNPLFKSATTTVMNPKFAES

Kd [3]: 98 µM
B4: Full-length integrin β2 tail peptide phosphorylated at Ser756 (peptide)
chain: KALIHLSDLREYRRFEKEKLKSQWNNDNPLFK[pS]ATTTVMNPKFAES
